Here are results for 19 molecules from patent publication US20240108738A1 (Bicycle, published 2024).

Numbered stars: 1 amine (or outer) side, 2 acyl side, 3 side chain; on linkers, the order of the positions; unused ones are H or OH. Bridge positions count the residues as written; N and C are the ends. Square brackets hold non-standard residues; d marks the D form. Primed or numbered codes have the meaning given here. Ends that are not written are not given here. * marks the point of attachment. TBMT = 2,4,6-tris(bromomethyl)-s-triazine, C(c1nc(C[*:2])nc(C[*:3])n1)[*:1]; TBMT″ = 2,4,6-tris(bromomethyl)-s-triazine, scaffold on three Cys; TATA = O=C(CC[*:1])N1CN(C(=O)CC[*:2])CN(C(=O)CC[*:3])C1; Biotin = O=C1N[C@H]2[C@H](CS[C@H]2CCCCC(=O)*)N1; Phe(4-Cl) = N[C@@H](Cc1ccc(Cl)cc1)C(=O)O; Cba = N[C@@H](CC1CCC1)C(=O)O; Pent4ynoyl = C#CCCC(=O)*; Sar = CNCC(=O)O

B1: BCY15650 (peptide)
peptide: ACYLPDYLC[dA]DEYCA-NH2
modifications: linker 2-9-14 via TATA; N-terminus assumed
SMILES: CC(C)C[C@@H]1NC(=O)[C@H](Cc2ccc(O)cc2)NC(=O)[C@H](CC(=O)O)NC(=O)[C@@H]2CCCN2C(=O)[C@H](CC(C)C)NC(=O)[C@H](Cc2ccc(O)cc2)NC(=O)[C@@H](NC(=O)[C@H](C)N)CSCCC(=O)N2CN3CN(C2)C(=O)CCSC[C@H](NC1=O)C(=O)N[C@H](C)C(=O)N[C@@H](CC(=O)O)C(=O)N[C@@H](CCC(=O)O)C(=O)N[C@@H](Cc1ccc(O)cc1)C(=O)N[C@H](C(=O)N[C@@H](C)C(N)=O)CSCCC3=O
notes: scaffold TATA
B2: BCY16132 (peptide)
peptide: ACY[Cba]PDYLC[dA]DEYCA-NH2
modifications: linker 2-9-14 via TATA; N-terminus assumed
SMILES: CC(C)C[C@@H]1NC(=O)[C@H](Cc2ccc(O)cc2)NC(=O)[C@H](CC(=O)O)NC(=O)[C@@H]2CCCN2C(=O)[C@H](CC2CCC2)NC(=O)[C@H](Cc2ccc(O)cc2)NC(=O)[C@@H](NC(=O)[C@H](C)N)CSCCC(=O)N2CN3CN(C2)C(=O)CCSC[C@H](NC1=O)C(=O)N[C@H](C)C(=O)N[C@@H](CC(=O)O)C(=O)N[C@@H](CCC(=O)O)C(=O)N[C@@H](Cc1ccc(O)cc1)C(=O)N[C@H](C(=O)N[C@@H](C)C(N)=O)CSCCC3=O
notes: scaffold TATA
B3: BCY15639 (peptide)
peptide: ACY[Cba]PDYLCGDEYCA-NH2
modifications: linker 2-9-14 via TATA; N-terminus assumed
SMILES: CC(C)C[C@@H]1NC(=O)[C@H](Cc2ccc(O)cc2)NC(=O)[C@H](CC(=O)O)NC(=O)[C@@H]2CCCN2C(=O)[C@H](CC2CCC2)NC(=O)[C@H](Cc2ccc(O)cc2)NC(=O)[C@@H](NC(=O)[C@H](C)N)CSCCC(=O)N2CN3CN(C2)C(=O)CCSC[C@@H](C(=O)N[C@@H](C)C(N)=O)NC(=O)[C@H](Cc2ccc(O)cc2)NC(=O)[C@H](CCC(=O)O)NC(=O)[C@H](CC(=O)O)NC(=O)CNC(=O)[C@H](CSCCC3=O)NC1=O
notes: scaffold TATA
B4: BCY16144 (peptide)
peptide: ACYLPD[Phe(4-Cl)]LCGDEYCA-NH2
modifications: linker 2-9-14 via TATA; N-terminus assumed
SMILES: CC(C)C[C@@H]1NC(=O)[C@H](Cc2ccc(Cl)cc2)NC(=O)[C@H](CC(=O)O)NC(=O)[C@@H]2CCCN2C(=O)[C@H](CC(C)C)NC(=O)[C@H](Cc2ccc(O)cc2)NC(=O)[C@@H](NC(=O)[C@H](C)N)CSCCC(=O)N2CN3CN(C2)C(=O)CCSC[C@@H](C(=O)N[C@@H](C)C(N)=O)NC(=O)[C@H](Cc2ccc(O)cc2)NC(=O)[C@H](CCC(=O)O)NC(=O)[C@H](CC(=O)O)NC(=O)CNC(=O)[C@H](CSCCC3=O)NC1=O
notes: scaffold TATA
B5: BCY12622 (peptide)
peptide: ACPPEVWCHPLDCA[Sar][Sar][Sar][Sar][Sar][Sar]K(Biotin)-NH2
modifications: linker 2-8-13 via TATA; N-terminus assumed
SMILES: CC(C)C[C@@H]1NC(=O)[C@@H]2CCCN2C(=O)[C@H](Cc2c[nH]cn2)NC(=O)[C@@H]2CSCCC(=O)N3CN(CN(C3)C(=O)CCSC[C@H](NC(=O)[C@H](C)N)C(=O)N3CCC[C@H]3C(=O)N3CCC[C@H]3C(=O)N[C@@H](CCC(=O)O)C(=O)N[C@@H](C(C)C)C(=O)N[C@@H](Cc3c[nH]c4ccccc34)C(=O)N2)C(=O)CCSC[C@@H](C(=O)N[C@@H](C)C(=O)N(C)CC(=O)N(C)CC(=O)N(C)CC(=O)N(C)CC(=O)N(C)CC(=O)N(C)CC(=O)N[C@@H](CCCCNC(=O)CCCC[C@@H]2SC[C@@H]3NC(=O)N[C@@H]32)C(N)=O)NC(=O)[C@H](CC(=O)O)NC1=O
notes: scaffold TATA

T4 sequence (P08637 17-208 limits assumed, change not shown): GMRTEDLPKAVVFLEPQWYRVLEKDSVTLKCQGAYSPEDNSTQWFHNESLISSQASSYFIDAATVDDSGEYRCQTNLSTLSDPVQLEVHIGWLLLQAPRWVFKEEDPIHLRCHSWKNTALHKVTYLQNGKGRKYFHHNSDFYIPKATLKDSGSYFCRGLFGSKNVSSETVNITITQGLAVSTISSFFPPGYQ
T3 sequence (P08637 other isoform, or with tags, fused parts or gaps mutant limits assumed): as the sequence (P08637 17-208 limits assumed, change not shown) above, with F160V counted along it

The target in the first assay is T1, Human NKp46 Fc tag (Acro Biosystems, NC1-H5257) (human, UniProt O76036 22-255).
T1 construct: bought; also called Fc-tagged human NKp46
T1 sequence (O76036 22-255 limits assumed): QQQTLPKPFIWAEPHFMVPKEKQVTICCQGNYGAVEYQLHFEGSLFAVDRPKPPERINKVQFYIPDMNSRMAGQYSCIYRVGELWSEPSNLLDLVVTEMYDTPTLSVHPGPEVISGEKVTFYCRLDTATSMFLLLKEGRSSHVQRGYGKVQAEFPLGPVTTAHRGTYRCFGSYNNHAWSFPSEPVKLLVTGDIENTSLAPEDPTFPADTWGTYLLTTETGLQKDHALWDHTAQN
The assay is described as follows: SPR Method 1 and/or 2. In a few lines: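 Fc-tagged human NKp46 captured on anti-human IgG surface (500–1000 RU); compounds run in PBS-P+ with 2% DMSO at 25 °C, 50 μL/min, 60 s association, 400 s dissociation. Double-referenced, DMSO-corrected; KD from steady-state 1:1 fit, kinetic constants from kinetic 1:1 fit where appropriate.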
ACYLPDWLCGDEYCA-NH2 (linker 2-9-14 via TATA; also: scaffold TATA, TATB or TBMT, scaffold TATA) [BCY14455]: the Kd stood at 230 nM. With B1, the Kd is 10 nM. Still for that read-out and setting: for ACYLPAYLCGDEYCA-NH2 (linker 2-9-14 via TATA; also: cyclised with TATA, TATB or TBMT, scaffold TATA) [BCY15656] the value was 34 nM. In the case of B2, binding was characterised by a dissociation constant (Kd) of 3.9 nM. In turn, Ac-CY[Cba]PDYLC[dA]DEYC-NH2 (linker 1-8-13 via TATA, scaffold TATA) [BCY16133] showed a Kd of 4.9 nM. On the same count and under the same terms, in the case of B3 it was 11 nM.

The next assay deals with T2, Human NKp46 His tag (Acro Biosystems, NC1-H52H4) (human, UniProt O76036 22-255).
T2 construct: bought; also called human NKp46-his tagged protein
T2 sequence (O76036 22-255 limits assumed): as above
The experiment in a line: FP competition vs BCY15035. The protocol:
The untagged competitor peptides were diluted in assay buffer 25 mM HEPES, 100 mM NaCl, 0.01% P20, pH 7.4. to a top concentration of 5000 nM and diluted 2-fold in 11 steps. The human NKp46-his tagged protein (AcroBiosystems) was diluted to 40 nM final concentration in the assay. […] The total volume of 25 μL was prepared in black walled and flat-bottomed low binding low volume 384 well plates. Measurements were performed using Envision (PerkinElmer) equipped with the excitation filter FITC FP 480, emission filter FITC FP P-pol 535 and 2nd emission filter FITC FP S-pol 535 and set to 30 flashes. The gain was set in a well containing tracer alone without target protein.
Regarding ACYLPDWLCGDEYCA-NH2 (linker 2-9-14 via TATA; also: scaffold TATA, TATB or TBMT, scaffold TATA) [BCY14455], the Ki was 282 nM.

With B1, the affinity, expressed as Ki, was 16 nM.

The molecule ACYLPAYLCGDEYCA-NH2 (linker 2-9-14 via TATA; also: cyclised with TATA, TATB or TBMT, scaffold TATA) [BCY15656] showed a Ki of 39 nM.

For B2, the Ki was found to be 8 nM. In the case of B4, the inhibitory constant (Ki) was 718 nM.

The molecule Ac-CY[Cba]PDYLC[dA]DEYC-NH2 (linker 1-8-13 via TATA, scaffold TATA) [BCY16133] yielded a Ki of 10 nM. Same read-out and setting: in the case of B3 it was 17 nM.

The next assay concerns the target T3, human CD16a V176 variant, biotinylated (human, UniProt P08637 17-208, N-terminally biotinylated in-house).
T3 construct: supplier is told for the AlphaScreen assay only; also called V Variant; FcγRIIIA V variant
The assay is described as follows: SPR. The protocol: (§1) The SPR analysis was run at 25° C. at a flow rate of 50 μl/min with 60 seconds association and dissociation between 60 and 200 seconds. Data were corrected for DMSO excluded volume effects. All data were double-referenced for blank injections and reference surface using standard processing procedures and data processing and kinetic fitting were performed using Scrubber software, version 2.0c (BioLogic Software). Data were fitted using simple 1:1 binding model allowing for mass transport effects where appropriate.
(§2) For analysis of peptide binding, a Biacore 8k+ instrument was used with a CM5 chip (Cytiva). All experiments were carried out at 25° C. Streptavidin was immobilized on all flow cells by standard amine coupling chemistry. The running buffer was HBS-N(Cytiva, 10 mM HEPES, 0.15 M NaCl, pH 7.4) and the flow rate was 10 μl/min. The carboxymethyl dextran surface was activated with a 1:1 ratio of 0.4 M 1-ethyl-3-(3-dimethylaminopropyl) carbodiimide hydrochloride (EDC)/0.1 M N-hydroxy succinimide (NHS) (Cytiva) for 420s. Streptavidin (ProSpec, cat no. PRO-791) was diluted to 0.2 mg/ml in 10 mM sodium acetate pH 4.5 and was injected onto the chip surface for 600 s. Residual activated groups were blocked with a 420 s injection of 1 M ethanolamine (pH 8.5). The final surface density was 2000-3000 RU. Biotinylated CD16a was diluted to 5 μg/ml in HBS-N and was captured on flow cell 2 only of the streptavidin chip at a flow rate of 10 μl/min to 1500-2500 RU. The buffer was then changed to PBS-P+(Cytiva) supplemented with 0.5-2% DMSO. […] The flow rate was 30 μl/min with 100 s association and 400 s dissociation. Data were corrected for DMSO volume exclusion effects. All data were double-referenced against blank injections and reference surface response using standard processing procedures. Data processing and kinetic fitting was performed using Biacore Insight Evaluation Software with Extended Screening and Characterization Extension (Cytiva). Data were fitted using steady state affinity 1:1 binding model to determine KD. Data were fitted using kinetic 1:1 binding model to determine kinetic constants where appropriate.
For ACVGLXELGPCSDLCA (CiVGL[Nle]ELGPCiiSDLCiii, scaffold TBMT) [BCY16511], the Kd is 5000 nM. On the same count and under the same terms, for ACVGLLELGPCSDLCAK(Pent4ynoyl)-NH2 (linker 2-11-15 via TBMT (inferred), scaffold TBMT) [BCY16165] the value was 3230 nM; for ACRWYFSEXCAAWCA (CiRWYFSE[Aze]Cii[dA]AWCiii, scaffold TBMT) [BCY20394], 1000 nM; for ACRWHFXEPCGAWCA (CiRWHF[HSer]EPCiiGAWCiii, scaffold TBMT) [BCY20388], 1080 nM. The same measure, in the same setting: for B5 the value was 4000 nM. Consider ACVGXEELGPCSDLCA (CiVG[tBuAla]EELGPCiiSDLCiii, scaffold TBMT) [BCY16501], for which the Kd worked out at 3220 nM.

ACRWHFSEPC[dA]AWCA-NH2 (linker 2-10-14 via TBMT″ (inferred), scaffold TBMT) [BCY20392]: binding was characterised by a dissociation constant (Kd) of 385 nM. Same read-out and setting: for ACRWXFSEPCGAWCA (CiRW[4FPhe]FSEPCiiGAWCiii, scaffold TBMT) [BCY20379] the value was 1430 nM.

Another assay has as its target T4, human CD16a F176 variant, biotinylated (human, UniProt P08637 17-208, C-terminally biotinylated).
T4 construct: supplier is told for the AlphaScreen assay only; also called F Variant; FcγRIIIA F variant
The experiment in a line: SPR. On the procedure:
as §1, §2
For ACVGLXELGPCSDLCA (CiVGL[Nle]ELGPCiiSDLCiii, scaffold TBMT) [BCY16511], binding was put at a Kd of 4020 nM. On the same count and under the same terms, for ACVGLXELGPCSDLCA (CiVGL[tBuAla]ELGPCiiSDLCiii, scaffold TBMT) [BCY16508] the value was 2980 nM; for ACRXSVEDPCGAWCA (CiR[6MeTrp]SVEDPCiiGAWCiii, scaffold TBMT) [BCY19046], 1600 nM; for ACRWHFXEPCGAWCA (CiRWHF[HSer]EPCiiGAWCiii, scaffold TBMT) [BCY20388], 2980 nM. On the same count and under the same terms, in the case of B5 it was 1000 nM; in that of ACVGL[Cba]ELGPCSDLCA-NH2 (linker 2-11-15 via TBMT″, scaffold TBMT) [BCY16509], 2820 nM; in that of ACRXSVEDPCGAWCA (CiR[6ClTrp]SVEDPCiiGAWCiii, scaffold TBMT) [BCY19050], 2150 nM. Same read-out and setting: in the case of ACRWHFSEPC[dA]AWCA-NH2 (linker 2-10-14 via TBMT″ (inferred), scaffold TBMT) [BCY20392] it was 825 nM.
